Data reported in paper PMC3290997 (Biochemistry, 2012).
Where two headings read alike, the source gives them in different places. No end group written: not given here. *: point of attachment. Biotin = O=C1N[C@H]2[C@H](CS[C@H]2CCCCC(=O)*)N1; MBP = 4-maleimido-benzophenone

Legend:
SecA [1] = target: T1, SecA (E. coli, UniProt P10408 1-901); assay: cross-linking
SecA [2] = target: T1, SecA; assay: cross-linking; remark: listed apart in the source

T1 sequence (P10408 whole entry): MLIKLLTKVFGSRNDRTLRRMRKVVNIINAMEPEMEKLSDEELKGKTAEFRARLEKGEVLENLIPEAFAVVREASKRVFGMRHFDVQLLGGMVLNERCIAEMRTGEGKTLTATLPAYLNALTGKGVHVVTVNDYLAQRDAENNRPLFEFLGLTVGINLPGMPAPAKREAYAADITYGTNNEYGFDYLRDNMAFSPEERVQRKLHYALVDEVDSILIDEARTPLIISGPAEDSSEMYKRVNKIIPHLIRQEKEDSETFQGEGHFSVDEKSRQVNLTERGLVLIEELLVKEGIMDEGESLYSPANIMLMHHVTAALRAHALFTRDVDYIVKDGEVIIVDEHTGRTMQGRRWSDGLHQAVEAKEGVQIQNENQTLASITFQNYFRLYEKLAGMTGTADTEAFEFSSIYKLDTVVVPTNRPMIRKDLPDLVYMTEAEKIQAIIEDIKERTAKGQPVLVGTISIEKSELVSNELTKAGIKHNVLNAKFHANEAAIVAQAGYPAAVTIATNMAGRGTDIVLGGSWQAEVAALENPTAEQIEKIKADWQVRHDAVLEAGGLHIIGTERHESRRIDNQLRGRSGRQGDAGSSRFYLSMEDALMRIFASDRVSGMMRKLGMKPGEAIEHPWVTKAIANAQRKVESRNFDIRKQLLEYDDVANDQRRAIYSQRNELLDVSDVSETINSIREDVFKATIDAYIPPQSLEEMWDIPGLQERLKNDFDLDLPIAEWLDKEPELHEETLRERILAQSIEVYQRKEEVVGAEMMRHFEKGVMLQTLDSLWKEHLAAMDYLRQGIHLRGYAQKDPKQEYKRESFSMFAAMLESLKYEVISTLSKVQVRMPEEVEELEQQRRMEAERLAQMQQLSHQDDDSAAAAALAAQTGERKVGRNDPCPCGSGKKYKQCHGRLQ

## Biotin-MMITLRKRRKLPLAVAVAAGVCSAQAMA [Biotinylated-KRRLamB19C signal peptide]
SecA [1]
  binding result: binds

## Biotin-MMITLRKRRKLPLAVAVAAGVC(MBP)SAQAMA [Bio-KRRLamB19C-MBP]
SecA [2]
  binding result: binds
